Target: GST-histone H3 [GST: P08515]
Sequence (P08515 whole entry, looked up): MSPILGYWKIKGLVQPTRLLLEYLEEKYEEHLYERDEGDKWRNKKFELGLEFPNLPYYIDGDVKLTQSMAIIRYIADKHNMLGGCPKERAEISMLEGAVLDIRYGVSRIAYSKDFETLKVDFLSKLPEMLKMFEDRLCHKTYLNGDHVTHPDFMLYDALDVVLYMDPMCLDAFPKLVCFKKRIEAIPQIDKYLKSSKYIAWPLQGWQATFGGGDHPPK

B1: Flag-tagged AURKB protein (protein)
chain: MAQKENSYPWPYGRQTAPSGLSTLPQRVLRKEPVTPSALVLMSRSNVQPTAAPGQKVMENSSGTPDILTRRHFTIDDFEIGRPLGKGKFGNVYLAREKKSHFIVALKVLFKSQIEKEGVEHQLRREIEIQAHLHHPNILRLYNYFYDRRRIYLILEYAPRGELYKELQKSCTFDEQRTATIMEELADALMYCHGKKVIHRDIKPENLLLGLKGELKIADFGWSVHAPSLRRKTMCGTLDYLPPEMIEGRMHNEKVDLWCIGVLCYELLVGNPPFESASHNETYRRIVKVDLKFPASVPMGAQDLISKLLRHNPSERLPLAQVSAHPWVRANSRRVLPPSALQSVA
B1 was tested, and the “in vitro phosphorylation, read by western blot” value was “the Flag-AURKB protein had kinase activity and can phosphorylate histone H3”.
